Experimental data as given in the Immune Epitope Database (IEDB).
pIC50, pKd: −log10 of the molar value.

Experiments:
[1] = biological target: HLA-A*02:01; assay: IEDB peptide-MHC binding, purified MHC/competitive/fluorescence; ≥ and ≤ were set here for values at or beyond the usual limits of such assays
[2] = biological target: HLA-A*24:02; assay: as above
[3] = biological target: HLA-A*30:01; assay: IEDB peptide-MHC binding, purified MHC/competitive/radioactivity; filed as Kd, often an IC50 or EC50 that approximates it; ≥ and ≤ were set here for values at or beyond the usual limits of such assays
[4] = biological target: HLA-A*29:02; assay: as above
[5] = biological target: HLA-A*32:01; assay: as above
[6] = biological target: HLA-A*01:01; assay: as above
[7] = biological target: HLA-A*26:01; assay: as above
[8] = biological target: HLA-A*30:02; assay: as above
[9] = biological target: HLA-A*02:01; assay: IEDB peptide-MHC binding, purified MHC/direct/fluorescence; filed as Kd, often an IC50 or EC50 that approximates it; ≥ and ≤ were set here for values at or beyond the usual limits of such assays; conditions: source organism: Rickettsia conorii
[10] = biological target: HLA-A*69:01; assay: as above; conditions: source organism: Rickettsia conorii
[11] = biological target: HLA-B*58:01; assay: as above; conditions: source organism: Rickettsia conorii
[12] = biological target: HLA-A*03:01; assay: as above; conditions: source organism: Rickettsia conorii
[13] = biological target: HLA-A*31:01; assay: as above; conditions: source organism: Rickettsia conorii
[14] = biological target: HLA-A*11:01; assay: as above; conditions: source organism: Rickettsia conorii
[15] = biological target: HLA-B*15:01; assay: as above; conditions: source organism: Rickettsia conorii
[16] = biological target: HLA-A*02:06; assay: IEDB peptide-MHC binding, purified MHC/competitive/radioactivity; filed as Kd, often an IC50 or EC50 that approximates it; ≥ and ≤ were set here for values at or beyond the usual limits of such assays; conditions: source organism: Dengue virus 1 Brazil/97-11/1997
[17] = biological target: HLA-B*35:01; assay: as above; conditions: source organism: Dengue virus 3 Martinique/1243/1999
[18] = source organism: Vaccinia virus WR
[19] = source organism: Mammarenavirus brazilense
[20] = source organism: Mammarenavirus tacaribeense
[21] = source organism: Dengue virus 3 Martinique/1243/1999

GILPWTKIS showed a pIC50 [1, 18] of 4.76 and a pIC50 [2, 18] of at most 3.88.
HIKNDFMIK was tested, and the pKd [3, 18] was 8.80.
HTASGEHSL was tested, and the pKd [4, 19] was at most 4.10, the pKd [5, 19] was 4.92 and the pKd [3, 19] was 5.07. It also gave a pKd [6, 19] of at most 4.60, a pKd [7, 19] of 4.78 and a pKd [8, 19] of 5.25.
HYAYMVPGW gave a pIC50 ([2]; source organism: West Nile virus) of 6.66.
HYDQKLGSY gave a pKd [4, 20] of at most 4.69, a pKd [5, 20] of 4.71 and a pKd [3, 20] of 5.26. The pKd [6, 20] was 4.96, the pKd [7, 20] was at most 4.44 and the pKd [8, 20] was 7.05.
Sequence IGEWAFWEN has a pIC50 ([2]; source organism: Sudan ebolavirus) of 4.23.
Work on ITTDSRCPTQ yielded a pKd [3, 21] of 6.06.
For KAKEMNALS, the pKd [3, 18] was 7.30.
KAMWKYPFS showed a pKd [3, 18] of 6.60.
Work on KAQREIFSA yielded a pIC50 ([1]; source organism: Variola virus) of 5.70 and a pIC50 ([2]; source organism: Variola virus) of 6.78.
For KLNENIIRF, the pKd [9] was 5.73, the pKd [10] was 5.32 and the pKd [11] was 7.16. For the same sequence, the pKd [12] was 6.26, the pKd [13] was 5.89 and the pKd [14] was 5.23. It also gave a pKd [15] of 6.82.
For KQWFLDLPL, the pKd ([5]; source organism: Dengue virus 1 Brazil/97-11/1997) was 7.88 and the pKd [16] was 8.12.
KSKFPRSML was tested, and the pKd [3, 18] was 7.51.
In the case of KVRTNAAMG, the pKd [3, 21] was 7.95.
LAILFEEVM was tested, and the pKd [17] was 7.48.
